B1: ORF3a protein (SARS-CoV-2), P0DTC3 (parent)
chain: MDLFMRIFTIGTVTLKQGEIKDATPSDFVRATATIPIQASLPFGWLIVGVALLAVFQSASKIITLKKRWQLALSKGVHFVCNLLLLFVTVYSHLLLVAAGLEAPFLYLYALVYFLQSINFVRIIMRLWLCWKCRSKNPLLYDANYFLCWHTNCYDYCIPYNSVTSSIVITSGDGTTSPISEHDYQIGGYTEKWESGVKDCVVLHSYFTSDYYQLYSTQLSTDTGVEHVTFFIYNKIVDEPEEHVQIHTIDGSSGVVNPVMEPIYDEPTTTTSVPL
partner: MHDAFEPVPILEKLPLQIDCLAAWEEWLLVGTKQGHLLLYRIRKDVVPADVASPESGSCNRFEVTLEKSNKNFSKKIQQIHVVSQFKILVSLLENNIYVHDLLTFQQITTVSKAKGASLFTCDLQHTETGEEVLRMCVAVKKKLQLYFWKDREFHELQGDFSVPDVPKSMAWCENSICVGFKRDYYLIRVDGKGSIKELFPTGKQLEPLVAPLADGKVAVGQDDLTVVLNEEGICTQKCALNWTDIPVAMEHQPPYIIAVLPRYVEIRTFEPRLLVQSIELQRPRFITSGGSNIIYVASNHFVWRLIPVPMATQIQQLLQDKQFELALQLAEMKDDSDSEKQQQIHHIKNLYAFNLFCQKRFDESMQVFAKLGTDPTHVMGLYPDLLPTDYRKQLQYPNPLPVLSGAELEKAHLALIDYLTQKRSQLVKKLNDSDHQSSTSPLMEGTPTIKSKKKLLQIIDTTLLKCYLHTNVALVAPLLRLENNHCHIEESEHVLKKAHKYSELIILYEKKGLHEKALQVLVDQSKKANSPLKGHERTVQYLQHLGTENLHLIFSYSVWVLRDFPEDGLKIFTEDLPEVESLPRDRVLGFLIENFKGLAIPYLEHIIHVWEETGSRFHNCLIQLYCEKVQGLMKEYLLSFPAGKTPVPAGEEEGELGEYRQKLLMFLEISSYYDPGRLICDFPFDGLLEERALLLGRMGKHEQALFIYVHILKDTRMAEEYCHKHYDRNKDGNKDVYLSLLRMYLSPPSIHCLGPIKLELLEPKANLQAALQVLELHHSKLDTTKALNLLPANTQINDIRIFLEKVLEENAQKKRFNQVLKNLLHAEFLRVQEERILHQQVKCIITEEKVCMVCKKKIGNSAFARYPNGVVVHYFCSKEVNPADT
B2: ORF3a protein (SARS-CoV-2), P0DTC3 (parent)
chain: B1 chain

In the first experiment the parent is B1. Conditions: with vps39_human VPS39, Q96JC1.
Take W193R: the “effect of a mutation on the interaction” value was “decreasing interaction strength”. Same read-out and setting: the same measure for S171E: “disrupting interaction strength”.

In the next experiment the parent is B1. Conditions: with vps39_human VPS39, Q96JC1. The source holds these as a separate data set.
In the case of Q116L, the “effect of a mutation on the interaction” value is reported as “with no effect”. Q57E: the “effect of a mutation on the interaction” value is “with no effect”. Same read-out and setting: the same measure for S58L: “with no effect”.

The variants in another experiment derive from B2. The following applies: with stx4_human STX4, Q12846.
Chain of stx4_human STX4, Q12846 (Q12846 whole entry): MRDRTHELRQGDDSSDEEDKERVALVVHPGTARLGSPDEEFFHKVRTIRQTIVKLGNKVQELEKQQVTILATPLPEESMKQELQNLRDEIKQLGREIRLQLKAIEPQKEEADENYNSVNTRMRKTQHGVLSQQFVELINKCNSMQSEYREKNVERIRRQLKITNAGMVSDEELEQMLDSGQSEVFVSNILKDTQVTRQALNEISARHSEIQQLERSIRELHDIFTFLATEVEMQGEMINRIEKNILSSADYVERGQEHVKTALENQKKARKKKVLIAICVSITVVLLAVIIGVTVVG
On to S171E, for which the “effect of a mutation on the interaction” value is on record as “disrupting interaction strength”.

In the next experiment the parent is B2. Conditions: with vamp7_human VAMP7, P51809.
Chain of vamp7_human VAMP7, P51809 (P51809 whole entry): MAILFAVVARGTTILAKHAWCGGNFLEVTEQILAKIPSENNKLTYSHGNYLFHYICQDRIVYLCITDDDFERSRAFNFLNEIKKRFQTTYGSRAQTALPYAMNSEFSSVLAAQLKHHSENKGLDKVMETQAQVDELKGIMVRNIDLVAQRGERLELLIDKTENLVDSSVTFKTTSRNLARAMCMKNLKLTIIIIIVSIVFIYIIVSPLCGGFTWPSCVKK
Turning to S171E, the “effect of a mutation on the interaction” value is on record as “disrupting interaction strength”.

Values taken from IntAct's records for PubMed 34706264.
